Among the data in US20060286609A1 (BIOCHECK, published 2006) are A450 and Cross-reactivity (%) values, retold here.

Experiment [1] has as its target Human Id1: Histidine (human) (UniProt P41134). The experiment is described as follows: sandwich ELISA, 5-3-coated wells, human Id1:His 5.0 ng/ml, detected with rabbit polyclonal B-5133-HRP. A general note: ELISA stands for enzyme-linked immunosorbent assay.
Experiment [2] shares this target. The experiment is described as follows: sandwich ELISA, 5-3-coated wells, human Id1:His 25.0 ng/ml, detected with rabbit polyclonal B-5133-HRP.
Experiment [3] shares this target. As to the kind of experiment: sandwich ELISA, 5-3-coated wells, human Id1:His 0 ng/ml (blank), detected with rabbit polyclonal B-5133-HRP.
Experiment [4] deals with T1, Mouse Id1: Histidine (mouse, UniProt P20067-2 1-148).
T1 construct: E. coli fusion protein (vector pGW07); also called m-Id1-His; not shown: His-tag
T1 sequence: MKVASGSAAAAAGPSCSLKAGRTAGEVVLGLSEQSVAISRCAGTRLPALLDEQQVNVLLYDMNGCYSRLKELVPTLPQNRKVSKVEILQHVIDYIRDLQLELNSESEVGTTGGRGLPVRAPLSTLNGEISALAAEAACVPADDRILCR
The experiment is described as follows: ELISA, coated antigen; reference mouse Id1.

For experiment [5], the target named is Human Id1: Histidine (human) (UniProt P41134). As to the kind of experiment: ELISA, coated antigen, Ab 0.50 ug/ml.
Human Id1: Histidine (human), sequence (P41134 whole entry): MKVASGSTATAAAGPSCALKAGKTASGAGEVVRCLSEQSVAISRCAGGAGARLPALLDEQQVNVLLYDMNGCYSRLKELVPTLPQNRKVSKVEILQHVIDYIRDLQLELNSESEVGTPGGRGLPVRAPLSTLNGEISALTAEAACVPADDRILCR
In experiment [6] the target is T2, glutathione S-transferase (GST) (UniProt P08515 1-218 = GST).
T2 construct: Coated on wells as control for the fusion partner of the immunogen
T2 sequence (P08515 whole entry, the tested form may be a part): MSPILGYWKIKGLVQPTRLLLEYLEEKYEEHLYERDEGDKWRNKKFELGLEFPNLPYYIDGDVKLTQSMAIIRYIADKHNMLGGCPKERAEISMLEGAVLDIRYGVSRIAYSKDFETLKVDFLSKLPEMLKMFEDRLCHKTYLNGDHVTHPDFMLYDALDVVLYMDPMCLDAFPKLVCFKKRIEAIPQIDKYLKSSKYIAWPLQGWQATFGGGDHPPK
As to the kind of experiment: ELISA, coated antigen, Ab 0.50 ug/ml. As to the method: (§1) Incubate plates at 2-8° C. overnight (16-24 hours). [0145] 11. Shake off the BSA solution. [0146] 12. Dispense 250 μL of 2.5% sucrose solution into each well. [0147] 13. Incubate plates at 2-8° C. for 4 hours. [0148] 14. Shake off sucrose solution. [0149] 15. Dry in vacuum at room temperature overnight. Screening Method [0150] 1. Dispense 100 μL of antibody diluent, diluted rabbit polyclonal anti-Id1 into appropriate wells. […] 2. Incubate at room temperature with mechanical shaking at 750 rpm for 90 minutes. [0152] 3. Remove the incubation mixture by flicking plate content into an appropriate waste container, followed by rinsing the wells 5 times with distilled water. […] 4. Strike the wells sharply onto absorbent paper or paper towels to remove all residual water droplets. [0154] 5. Dispense 100 μL of Goat Anti-Rabbit IgG-HRP Conjugate Reagent into each well. Gently mix for 5 seconds. [0155] 6. Incubate at room temperature with mechanical shaking at 750 rpm for 90 minutes. […] 7. Repeat procedures 3 and 4. [0157] 8. Dispense 100 μL of TMB Reagent into each well. Gently mix for 5 seconds. [0158] 9. Incubate at room temperature with mechanical shaking at 750 rpm for 20 minutes. [0159] 10. Add 100 μL of Stop Solution (1N HCl) into each well. [0160] 11. Gently mix for 10 seconds to ensure a complete mixing. […] 12. Read optical density (absorbance) at 450 nm. Results from this assay were used to select the rabbit sera with the highest antibodies titer that selectively reacts with mouse Id1 or human Id1 or both.
(§2) A comparison was carried out between the reactivity of the rabbit monoclonal anti-mouse Id1, clone #BCH-1/#37-2, of this invention and the mouse monoclonal anti-mouse/human Id1 from BD Pharmingen with the following antigens prepared in Example 5: mouse Id1:His, human Id1:His, human Id2:His, human Id3:His, and GST. These antigens and protein were used to coat the wells.
(§3) Materials and methods were those described in Example 9 except (a) Pharmingen's mouse monoclonal anti-mouse Id1 was used in addition to the rabbit monoclonal anti-mouse Id1 (Example 10), and (b) goat anti-mouse IgG-HRP conjugate was used to process the wells treated with the Pharmingen monoclonal antibody and polyclonal goat anti-rabbit IgG-HRP conjugate was used to process wells treated with rabbit monoclonal anti-mouse Id1.

Experiment [7] addresses T1, Mouse Id1: Histidine. The experiment is described as follows: ELISA, coated antigen, Ab 0.50 ug/ml. On the procedure:
as §1, §2, §3

Experiment [8] addresses T3, Human Id2: Histidine (human, UniProt Q02363 1-134, limits assumed).
T3 construct: E. coli fusion protein (vector pGW07); also called h-Id2: His; not shown: His-tag
T3 sequence (looked up): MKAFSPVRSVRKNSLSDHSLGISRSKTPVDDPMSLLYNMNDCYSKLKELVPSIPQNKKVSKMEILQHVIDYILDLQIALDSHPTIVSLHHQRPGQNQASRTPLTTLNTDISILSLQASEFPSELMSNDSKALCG
As to the kind of experiment: ELISA, coated antigen, Ab 0.50 ug/ml. On the procedure:
as §1, §2, §3

The target of experiment [9] is T4, Human Id3: Histidine (human, UniProt Q02535 1-119, limits assumed).
T4 construct: E. coli fusion protein (vector pGW07); also called h-Id3: His; not shown: His-tag
T4 sequence (looked up): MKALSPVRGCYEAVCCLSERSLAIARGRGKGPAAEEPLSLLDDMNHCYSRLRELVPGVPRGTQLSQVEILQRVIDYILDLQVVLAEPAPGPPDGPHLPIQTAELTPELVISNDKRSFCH
As to the kind of experiment: ELISA, coated antigen, Ab 0.50 ug/ml. As to the method:
as §1, §2, §3

Experiment [10] concerns the target T2, glutathione S-transferase (GST). As to the kind of experiment: ELISA, coated antigen, Ab 1.00 ug/ml. As to the method:
as §1, §2, §3

Experiment [11] deals with T1, Mouse Id1: Histidine. The experiment is described as follows: ELISA, coated antigen, Ab 1.00 ug/ml. As to the method: as §1, §2, §3
Experiment [12] addresses T3, Human Id2: Histidine. The experiment is described as follows: ELISA, coated antigen, Ab 1.00 ug/ml. As to the method: as §1, §2, §3
The target of experiment [13] is T4, Human Id3: Histidine. As to the kind of experiment: ELISA, coated antigen, Ab 1.00 ug/ml. As to the method:
as §1, §2, §3

The target in experiment [14] is T2, glutathione S-transferase (GST). As to the kind of experiment: ELISA, coated antigen, Ab 2.50 ug/ml. As to the method: as §1, §2, §3
In experiment [15] the target is T1, Mouse Id1: Histidine. As to the kind of experiment: ELISA, coated antigen, Ab 2.50 ug/ml. On the procedure: as §1, §2, §3

As to “rabbit monoclonal anti-human Id1, clone #BCH-2/#5-3 (antibody)”, the A450 was 0.365 A450 in experiment [1], 1.94 A450 in experiment [2] and 0.046 A450 in [3].

In the experiment with Mouse Id1: Histidine [4], “rabbit monoclonal anti-mouse/human Id1, clone #BCH-1/#195-14 (antibody)” gave a Cross-reactivity (%) of 100%.

B1: rabbit monoclonal anti-mouse Id1, clone #BCH-1/#37-2 (antibody, V domains shown)
VH: QSVEESGGRLVTPGTPLTLTCKVSGFDINSYAMDWFRQAPGKGLEWIGMMSTRGNTYYTSWAKGRFTISKTSSTTVDLKMTSLTTEDTATYFCARGGLWGPGTLVTVSS
VL: RVLTQTASPVSAAVGGTVTINCQASQSVYNGNRLGWYQLKPGQSPKELIHDASTLASGVPSRFRGSGSGTQFTLTINDVQCDDAATYYCVGSYACSTGDCNVFGGGTEVVVK
notes: Rabbit IgG from hybridoma, Protein G purified; also called m Id1 MoAb 37-2; Rabbit Monoclonal Anti-Mouse Id1 (#37-2)
As for B1, the A450 was 0.091 A450 in experiment [5]; 0.053 A450 in [6]; 2.46 A450 in the experiment with Mouse Id1: Histidine [7]; 0.052 A450 with Human Id2: Histidine [8]; 0.052 A450 with Human Id3: Histidine [9]; 0.062 A450 in experiment [10]. Also, the A450 is 2.88 A450 with Mouse Id1: Histidine [11]; 0.053 A450 with Human Id2: Histidine [12]; 0.063 A450 with Human Id3: Histidine [13]; 0.068 A450 in experiment [14]; 3.16 A450 in the experiment with Mouse Id1: Histidine [15].
